Experimental data published in patent US20190092839A1 (INSTITUTE FOR BASIC SCIENCE, published 2019).

Target: T1, iRFP-pMagH-C-term VHHActin
T1 construct: not shown: iRFP fluorescent protein of the piRFP construct (Addgene 31857)
Test: inferred from relocalisation of fluorescence in HeLa cells after 488 nm light (nMagH with pMagH)

T1 sequence (chain, as listed by the source): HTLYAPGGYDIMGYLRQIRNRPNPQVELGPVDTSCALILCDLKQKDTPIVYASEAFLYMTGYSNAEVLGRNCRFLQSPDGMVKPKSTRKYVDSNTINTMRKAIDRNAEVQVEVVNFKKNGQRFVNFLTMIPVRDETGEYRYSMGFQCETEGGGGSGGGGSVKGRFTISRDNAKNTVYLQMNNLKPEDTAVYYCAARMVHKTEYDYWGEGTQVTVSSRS

binding result: binds
B1: N-term VHHActin-nMagH-mCherry (other)
chain: MAQVQLVESGGGLTQAGGSLRLSCATSGLIFSAFGMGWFRQAPGKEREFVGGINWRGSTNYGDFGGGGSGGGGSHTLYAPGGYDIMGYLDQIGNRPNPQVELGPVDTSCALILCDLKQKDTPIVYASEAFLYMTGYSNAEVLGRNCRFLQSPDGMVKPKSTRKYVDSNTINTIRKAIDRNAEVQVEVVNFKKNGQRFVNFLTIIPVRDETGEYRYSMGFQCETE
notes: not shown: mCherry red fluorescent protein of the pmCherry construct (engineered)
